Data from PMC10515946.

Legend:
[1] = target: 1059 SOSIP (TPA-1059 SOSIP, soluble Env trimer of the transmitted/founder HIV-1 strain 1059), purifi (HIV-1 strain 1059); assay: cryo-EM structure
[2] = target: BG505 SOSIP (soluble Env trimer of HIV-1 BG505) (HIV-1 strain BG505); assay: cryo-EM structure

Which stoichiometry N [1] does the source give for “1059 SOSIP (TPA-1059 SOSIP, soluble Env trimer of the transmitted/founder HIV-1 strain 1059), purifi (complex)” here?
Its stoichiometry N is 3.

For “BG505 SOSIP (soluble Env trimer of HIV-1 BG505) (complex)”, which stoichiometry N [2] is on record?
Its stoichiometry N is 3.
